Key:
[1] = target: improved ZAP70 FRET biosensor with substrate … (SEQ ID NO:113), kinase domain removed
[2] = target: improved ZAP70 FRET biosensor with substrate … (SEQ ID NO:113), kinase domain removed; experiment: cell-based or functional assay
[3] = target: parental (WT) ZAP70 FRET biosensor with LAT Y191 substrate … (SEQ ID NO:107), kinase domain removed; experiment: cell-based or functional assay

B1: ZAP70 kinase (Zeta-chain-associated protein kinase 70), endogenous in Jurkat T cells (protein)
chain: MPDPAAHLPFFYGSISRAEAEEHLKLAGMADGLFLLRQCLRSLGGYVLSLVHDVRFHHFPIERQLNGTYAIAGGKAHCGPAELCEFYSRDPDGLPCNLRKPCNRPSGLEPQPGVFDCLRDAMVRDYVRQTWKLEGEALEQAIISQAPQVEKLIATTAHERMPWYHSSLTREEAERKLYSGAQTDGKFLLRPRKEQGTYALSLIYGKTVYHYLISQDKAGKYCIPEGTKFDTLWQLVEYLKLKADGLIYCLKEACPNSSASNASGAAAPTLPAHPSTLTHPQRRIDTLNSDGYTPEPARITSPDKPRPMPMDTSVYESPYSDPEELKDKKLFLKRDNLLIADIELGCGNFGSVRQGVYRMRKKQIDVAIKVLKQGTEKADTEEMMREAQIMHQLDNPYIVRLIGVCQAEALMLVMEMAGGGPLHKFLVGKREEIPVSNVAELLHQVSMGMKYLEEKNFVHRDLAARNVLLVNRHYAKISDFGLSKALGADDSYYTARSAGKWPLKWYAPECINFRKFSSRSDVWSYGVTMWEALSYGQKPYKKMKGPEVMAFIEQGKRMECPPECPPELYALMSDCWIYKWEDRPDFLTVEQRMRACYYSLASKVEGPPGSTQKAEAACA
Q: Which results are given for B1?
A: increase in sensitivity compared to the parental template (SREYVNVSGEL) [1]: > 4 fold; ECFP/FRET ratio change (sensitivity) of the biosensor in Jurkat T cells upon CD3/CD28-antibody stimulation [2]: 25%; ECFP/FRET ratio change (sensitivity) of the biosensor in Jurkat T cells upon CD3/CD28-antibody stimulation [3]: 5.8%

From patent US20250347696A1, “SELF-ACTIVATING FÖRSTER RESONANCE ENERGY TRANSFER (saFRET) BIOSENSORS AND METHODS FOR MAKING AND USING THEM” (The Regents of the University of California, priority 2021, published 2025)
